Laboratory results reported in patent publication EP2015073A1.

Tests used:
[1] = molecular target: human Bcl10 (hBcl10), endogenous in the cells used (human) (UniProt O95999); assay: cell-based or functional assay
[2] = molecular target: FLAG-tagged, point mutated Bcl10 (R228/G) (human) (UniProt O95999); assay: cell-based or functional assay

Substance	relative NF-κB activity (dual luciferase assay), percent of the maximum level achieved with wt Malt1 [1] [%]	relative NF-κB activity (dual luciferase assay), percent of the maximum levels (wt Bcl10) [2] [%]
Malt1 with deletion of the caspase-like domain (Δcasp) or mutation of the active site residues Cys 464 or His 415	50 to 65	–
human Malt1 (hMalt1), endogenous in the cells used (from UniProt Q9UDY8 1-824) (enzyme)	–	75
